The values below come from patent US20130252307A1.

First the molecules themselves.
B1: last bacterial common ancestor (LBCA) Trx (protein)
chain: MSVIEINDENFEEEVLKSDKPVLVDFWAPWCGPCRMIAPIIEELAEEYEGKVKFAKVNVDENPETAAKYGIMSIPTLLLFKNGEVVDKLVGARPKEALKERIEKHL
B2: last common ancestor of animals and fungi (LAFCA) Trx (protein)
chain: MVIQVTNKDEFESILSEADKLVVVDFTATWCGPCKMIAPKFEELSEEYPDNVVFLKVDVDEVEDVAAEYGISAMPTFQFFKNGKKVDELTGANQEKLKAMIKKHAA
B3: last eukaryotic common ancestor (LECA) Trx (protein)
chain: MVIQVTNKEEFEAILSEADKLVVVDFFATWCGPCKMIAPFFEELSEEYPDKVVFIKVDVDEVPDVAAKYGITSMPTFKFFKNGKKVDELVGANQEKLKQMILKHAP
B4: last common ancestor of γ-proteobacteria (LGPCA) Trx (protein)
chain: MSIIHVTDDSFDQDVLKADKPVLVDFWAEWCGPCKMIAPILDEIAEEYEGKLKVAKVNIDENPETAAKYGIRGIPTLMLFKNGEVAATKVGALSKSQLKEFLDANL
B5: last common ancestor of cyanobacterial and deinococcus/thermus groups (LPBCA) Trx (protein)
chain: MSVIEVTDENFEQEVLKSDKPVLVDFWAPWCGPCRMIAPIIEELAKEYEGKVKVVKVNVDENPNTAAQYGIRSIPTLLLFKNGQVVDRLVGAQPKEALKERIDKHL
B6: archaeal/eukaryotic common ancestor (AECA) Trx (protein)
chain: MSVIEINDENFDEVIKKSDKVVVVDFWAEWCGPCRMIAPIIEELAEEYAGKVVFGKVNVDENPEIAAKYGIMSIPTLLFFKNGKVVDQLVGARPKEALKERIKKYL
B7: last archaeal common ancestor (LACA) Trx (protein)
chain: B6 chain with I4V, E5Q, I6L, S18N, D19N, E46K, V57L, I65T, R93M
B8: wild type human Trx enzyme (protein)
chain: VKQIESKTAFQEALDAAGDKLVVVDFSATWCGPCKMIKPFFHSLSEKYSNVIFLEVDVDDCQDVASECEVKCMPTFQFFKKGQKVGEFSGANKEKLEATINELV
B9: C35S human thioredoxin mutant (hTrx^C35S) (protein)
chain: B8 chain with C34S

Where a chain is given by its changes, count along the chain named. In names and notes the source's numbering stands.

One data set addresses (I27G32C-A75C)8 polypeptide (UniProt Q8WZ42).
Assay: not given
In the case of Trx from Acetobacter aceti, the “rate of disulfide reduction at pH 5, 100 pN” value is “active at pH 5 (0.6×10^5 M^-1 s^-1 at 100 pN)”.
Take Trx from Sulfolobus tokodaii: the “rate of disulfide reduction at pH 5” value was “does not show detectable activity at pH 5” and the “rate of disulfide reduction at pH 7, 50 pN” value is “active at pH 7 (0.12×10^5 M^-1 s^-1 at 50 pN)”.

Another data set has the same target. The experiment in a line: given as k10 (k10=δ0); three-state kinetic model fitted to force-dependent disulfide reduction rates, single-molecule AFM force-clamp, pH 7.2; not a direct binding assay.
With B1, the off-rate (koff) is 5.8 s⁻¹.
For B2, the koff was found to be 4.6 s⁻¹.
Molecule B3 showed a koff of 4.2 s⁻¹.
B4 returned an off-rate constant (koff) of 3.8 s⁻¹.
Consider B5, for which the koff is 4.9 s⁻¹.

The next data set shares this target. The experiment in a line: given as α0 (k01=α0[Trx]); three-state kinetic model fitted to force-dependent disulfide reduction rates, single-molecule AFM force-clamp, pH 7.2; not a direct binding assay.
In the case of B1, the on-rate constant (kon) is 470000 M⁻¹ s⁻¹.
On the same count and under the same terms, the figure for B2 is 810000 M⁻¹ s⁻¹; for B3 it is 760000 M⁻¹ s⁻¹; for B4 it is 480000 M⁻¹ s⁻¹.
B5 showed a kon of 470000 M⁻¹ s⁻¹.

In a further data set the target is (I27G32C-A75C)8 polypeptide, Q8WZ42.
Assay: not given
Regarding B1, the “rate of catalysis at pH 5” value is “showed a high rate of catalysis at pH 5, where extant enzymes are largely inactive”; the “reduction rates at pH 5” value is “the reduction rates observed at pH 5 are strikingly similar to those measured at pH 7.2”; the “staircases of single reduction events (AFM force-clamp)” value (shortened to “staircases of single reduction events”) is “All the ancestral enzymes resurrected using the methods described herein were able to trigger staircases of reduction events”; the Δx02 (Å) is 0.19 Å. Moreover, the Δx12 (Å) was -0.74 Å, the β0 (s-^1) is 30 s⁻¹, the γ0 is 0.004 µM⁻¹ s⁻¹ and the λ0 turned out to be 0.09 s⁻¹.
Turning to B2, the “staircases of single reduction events” value is recorded as “All the ancestral enzymes resurrected using the methods described herein were able to trigger staircases of reduction events”, the Δx12 (Å) was -0.74 Å, the β0 (s-^1) worked out at 37 s⁻¹ and the λ0 came to 0.06 s⁻¹.
Turning to B3, the “staircases of single reduction events” value is reported as “All the ancestral enzymes resurrected using the methods described herein were able to trigger staircases of reduction events”, the Δx12 (Å) was -0.8 Å, the β0 (s-^1) was 38 s⁻¹ and the λ0 is 0.18 s⁻¹.
On to B6, for which the “rate constant of disulfide bond reduction extrapolated to zero force (pH 7.2)” value is reported as 30×10^5 M^-1 s^-1 for AECA Trx, the “reduction rate constant at pH 5 extrapolated to zero force” value is 19×10^5 M^-1 s^-1, the “staircases of single reduction events” value was “All the ancestral enzymes resurrected using the methods described herein were able to trigger staircases of reduction events” and the Δx02 (Å) was 0.19 Å. The same molecule yielded a Δx12 (Å) of -0.84 Å, a β0 (s-^1) of 25 s⁻¹, a γ0 of 0.019 µM⁻¹ s⁻¹ and a λ0 of 0.21 s⁻¹.
Consider B7, for which the “rate constant of disulfide bond reduction extrapolated to zero force (pH 7.2)” value was 29×10^5 M^-1 s^-1 for LACA Trx, the “reduction rate constant at pH 5 extrapolated to zero force” value was 6.2×10^5 M^-1 s^-1, the “staircases of single reduction events” value is given as “All the ancestral enzymes resurrected using the methods described herein were able to trigger staircases of reduction events” and the Δx12 (Å) was -0.76 Å. Further, the β0 (s-^1) turned out to be 43 s⁻¹ and the λ0 came out at 0.38 s⁻¹.
Turning to B4, the “staircases of single reduction events” value is reported as “All the ancestral enzymes resurrected using the methods described herein were able to trigger staircases of reduction events”, the Δx02 (Å) amounted to 0.17 Å, the Δx12 (Å) is -0.83 Å and the β0 (s-^1) was found to be 34 s⁻¹. This molecule registered a γ0 of 0.012 µM⁻¹ s⁻¹ and a λ0 of 0.35 s⁻¹.
For the molecule B8, the “rate of reduction at pH 5, fold lower than LBCA” value was “modern E. coli and human thioredoxin show ˜20 fold lower rates at this pH”; the “reoxidation of substrate disulfide bonds during refolding (step sizes in the probe pulse)” value is “none of the refolded domains formed a disulfide bond, indicating that the wild type form of thioredoxin does not catalyze reoxidation”.
As for B9, the “reoxidation of substrate disulfide bonds during refolding (step sizes in the probe pulse)” value was “the step sizes during the probe pulse are now entirely composed of 11 and 14 nm steps, indicating the full reoxidation of all the disulfide bonds”.
On to B5, for which the “staircases of single reduction events” value is recorded as “All the ancestral enzymes resurrected using the methods described herein were able to trigger staircases of reduction events”, the Δx02 (Å) came out at 0.17 Å, the Δx12 (Å) is -0.71 Å and the β0 (s-^1) was 30 s⁻¹. Besides, the γ0 is 0.017 µM⁻¹ s⁻¹ and the λ0 is 0.19 s⁻¹.
